Source: the supplement of paper PMC5998384

Assays:
[1] = tested on: HeLa Kyoto; assay: thermal stability score vs G1/S (z-score of summed log2 fold changes over temperatures); higher = more thermally stable than in G1/S
[2] = tested on: HeLa Kyoto; assay: solubility in G1/S (NP-40 vs SDS abundance) (log2 ratio); higher = more soluble; details: cell cycle stage: G1/S
[3] = tested on: HeLa Kyoto; assay: solubility change mitosis vs G1/S (difference of NP-40 vs SDS log2 ratios) (log2 ratio difference); higher = more soluble in mitosis
[4] = tested on: HeLa Kyoto; assay: melting temperature (median over replicates), in situ; higher = more thermally stable
[5] = cell cycle stage: early G1 (4.5 h after nocodazole release)
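Wherever melting temperature (median over replicates), in situ is given: HeLa Kyoto cells synchronized by double thymidine or nocodazole block, proteins quantified by TMT10plex mass spectrometry, three independent biological replicates.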
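Wherever solubility change mitosis vs G1/S (difference of NP-40 vs SDS log2 ratios) is given: synchronized HeLa Kyoto cells (double thymidine block for G1/S, nocodazole release for mitosis), protein amounts in NP-40 versus SDS lysates quantified by mass spectrometry, three biological replicates.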
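Wherever solubility in G1/S (NP-40 vs SDS abundance) is given: HeLa Kyoto cells arrested at G1/S by double thymidine block, proteins quantified by TMT10plex mass spectrometry in mild NP-40 versus SDS extracts, three biological replicates.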
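Wherever thermal stability score vs G1/S (z-score of summed log2 fold changes over temperatures) is given: synchronized HeLa Kyoto cells, proteins quantified by TMT10plex mass spectrometry, three biological replicates, mitosis taken 0.5 h after nocodazole release, G1/S directly after double thymidine block.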

Sequence	thermal stability score [1, 5]	thermal stability score ([1]; cell cycle stage: mitosis)	solubility in G1/S (log2) [2]	solubility change mitosis (log2) [3]	melting temperature ([4]; cell cycle stage: G1/S) [°C]	melting temperature ([4]; cell cycle stage: mitosis) [°C]
MAELGAGGDGHRGGDGAVRSETAPDSYKVQDKKNASSRPASAISGQNNNHSGNKPDPPPVLRVDDRQRLARERREEREKQLAAREIVWLEREERARQHYEKHLEERKKRLEEQRQKEERRRAAVEEKRRQRLEEDKERHEAVVRRTMERSQKPKQKHNRWSWGGSLHGSPSIHSADPDRRSVSTMNLSKYVDPVISKRLSSSSATLLNSPDRARRLQLSPWESSVVNRLLTPTHSFLARSKSTAALSGEAASCSPIIMPYKAAHSRNSMDRPKLFVTPPEGSSRRRIIHGTASYKKERERENVLFLTSGTRRAVSPSNPKARQPARSRLWLPSKSLPHLPGTPRPTSSLPPGSVKAAPAQVRPPSPGNIRPVKREVKVEPEKKDPEKEPQKVANEPSLKGRAPLVKVEEATVEERTPAEPEVGPAAPAMAPAPASAPAPASAPAPAPVPTPAMVSAPSSTVNASASVKTSAGTTDPEEATRLLAEKRRLAREQREKEERERREQEELERQKREELAQRVAEERTTRREEESRRLEAEQAREKEEQLQRQAEERALREREEAERAQRQKEEEARVREEAERVRQEREKHFQREEQERLERKKRLEEIMKRTRRTEATDKKTSDQRNGDIAKGALTGGTEVSALPCTTNAPGNGKPVGSPHVVTSHQSKVTVESTPDLEKQPNENGVSVQNENFEEIINLPIGSKPSRLDVTNSESPEIPLNPILAFDDEGTLGPLPQVDGVQTQQTAEVI [MAP7]	-5.44	-8.57	-0.661	0.704	54.3	52.1
MILNSLSLCYHNKLILAPMVRVGTLPMRLLALDYGADIVYCEELIDLKMIQCKRVVNEVLSTVDFVAPDDRVVFRTCEREQNRVVFQMGTSDAERALAVARLVENDVAGIDVNMGCPKQYSTKGGMGAALLSDPDKIEKILSTLVKGTRRPVTCKIRILPSLEDTLSLVKRIERTGIAAIAVHGRKREERPQHPVSCEVIKAIADTLSIPVIANGGSHDHIQQYSDIEDFRQATAASSVMVARAAMWNPSIFLKEGLRPLEEVMQKYIRYAVQYDNHYTNTKYCLCQMLREQLESPQGRLLHAAQSSREICEAFGLGAFYEETTQELDAQQARLSAKTSEQTGEPAEDTSGVIKMAVKFDRRAYPAQITPKMCLLEWCRREKLAQPVYETVQRPLDRLFSSIVTVAEQKYQSTLWDKSKKLAEQAAAIVCLRSQGLPEGRLGEESPSLHKRKREAPDQDPGGPRAQELAQPGDLCKKPFVALGSGEESPLEGW [DUS2]	0.209	0.349	-0.0157	-0.0821	50.3	50.9
MTVSGPGTPEPRPATPGASSVEQLRKEGNELFKCGDYGGALAAYTQALGLDATPQDQAVLHRNRAACHLKLEDYDKAETEASKAIEKDGGDVKALYRRSQALEKLGRLDQAVLDLQRCVSLEPKNKVFQEALRNIGGQIQEKVRYMSSTDAKVEQMFQILLDPEEKGTEKKQKASQNLVVLAREDAGAEKIFRSNGVQLLQRLLDMGETDLMLAALRTLVGICSEHQSRTVATLSILGTRRVVSILGVESQAVSLAACHLLQVMFDALKEGVKKGFRGKEGAIIVDPARELKVLISNLLDLLTEVGVSGQGRDNALTLLIKAVPRKSLKDPNNSLTLWVIDQGLKKILEVGGSLQDPPGELAVTANSRMSASILLSKLFDDLKCDAERENFHRLCENYIKSWFEGQGLAGKLRAIQTVSCLLQGPCDAGNRALELSGVMESVIALCASEQEEEQLVAVEALIHAAGKAKRASFITANGVSLLKDLYKCSEKDSIRIRALVGLCKLGSAGGTDFSMKQFAEGSTLKLAKQCRKWLCNDQIDAGTRRWAVEGLAYLTFDADVKEEFVEDAAALKALFQLSRLEERSVLFAVASALVNCTNSYDYEEPDPKMVELAKYAKQHVPEQHPKDKPSFVRARVKKLLAAGVVSAMVCMVKTESPVLTSSCRELLSRVFLALVEEVEDRGTVVAQGGGRALIPLALEGTDVGQTKAAQALAKLTITSNPEMTFPGERIYEVVRPLVSLLHLNCSGLQNFEALMALTNLAGISERLRQKILKEKAVPMIEGYMFEEHEMIRRAATECMCNLAMSKEVQDLFEAQGNDRLKLLVLYSGEDDELLQRAAAGGLAMLTSMRPTLCSRIPQVTTHWLEILQALLLSSNQELQHRGAVVVLNMVEASREIASTLMESEMMEILSVLAKGDHSPVTRAAAACLDKAVEYGLIQPNQDGE [UNC45A]	0.271	1.37	0.2	-0.111	48.6	48.8
MSDEGSRGSRLPLALPPASQGCSSGGGGGGSSAGGSGNSRPPRNLQGLLQMAITAGSEEPDPPPEPMSEERRQWLQEAMSAAFRGQREEVEQMKSCLRVLSQPMPPTAGEAEQAADQQEREGALELLADLCENMDNAADFCQLSGMHLLVGRYLEAGAAGLRWRAAQLIGTCSQNVAAIQEQVLGLGALRKLLRLLDRDACDTVRVKALFAISCLVREQEAGLLQFLRLDGFSVLMRAMQQQVQKLKVKSAFLLQNLLVGHPEHKGTLCSMGMVQQLVALVRTEHSPFHEHVLGALCSLVTDFPQGVRECREPELGLEELLRHRCQLLQQHEEYQEELEFCEKLLQTCFSSPADDSMDR [HSPBP1]	0.863	0.675	0.303	0.0712	50.8	51.2
MEPPYSLTAHYDEFQEVKYVSRCGAGGARGASLPPGFPLGAARSATGARSGLPRWNRREVCLLSGLVFAAGLCAILAAMLALKYLGPVAAGGGACPEGCPERKAFARAARFLAANLDASIDPCQDFYSFACGGWLRRHAIPDDKLTYGTIAAIGEQNEERLRRLLARPGGGPGGAAQRKVRAFFRSCLDMREIERLGPRPMLEVIEDCGGWDLGGAEERPGVAARWDLNRLLYKAQGVYSAAALFSLTVSLDDRNSSRYVIRIDQDGLTLPERTLYLAQDEDSEKILAAYRVFMERVLSLLGADAVEQKAQEILQVEQQLANITVSEHDDLRRDVSSMYNKVTLGQLQKITPHLRWKWLLDQIFQEDFSEEEEVVLLATDYMQQVSQLIRSTPHRVLHNYLVWRVVVVLSEHLSPPFREALHELAQEMEGSDKPQELARVCLGQANRHFGMALGALFVHEHFSAASKAKVQQLVEDIKYILGQRLEELDWMDAETRAAARAKLQYMMVMVGYPDFLLKPDAVDKEYEFEVHEKTYFKNILNSIRFSIQLSVKKIRQEVDKSTWLLPPQALNAYYLPNKNQMVFPAGILQPTLYDPDFPQSLNYGGIGTIIGHELTHGYDDWGGQYDRSGNLLHWWTEASYSRFLRKAECIVRLYDNFTVYNQRVNGKHTLGENIADMGGLKLAYHAYQKWVREHGPEHPLPRLKYTHDQLFFIAFAQNWCIKRRSQSIYLQVLTDKHAPEHYRVLGSVSQFEEFGRAFHCPKDSPMNPAHKCSVW [ECEL1]	0.162	2.03	-0.0684	-0.124	52.9	52.1
MNFRQLLLHLPRYLGASGSPRRLWWSPSLDTISSVGSWRGRSSKSPAHWNQVVSEAEKIVGYPTSFMSLRCLLSDELSNIAMQVRKLVGTQHPLLTTARGLVHDSWNSLQLRGLVVLLISKAAGPSSVNTSCQNYDMVSGIYSCQRSLAEITELIHIALLVHRGIVNLNELQSSDGPLKDMQFGNKIAILSGDFLLANACNGLALLQNTKVVELLASALMDLVQGVYHENSTSKESYITDDIGISTWKEQTFLSHGALLAKSCQAAMELAKHDAEVQNMAFQYGKHMAMSHKINSDVQPFIKEKTSDSMTFNLNSAPVVLHQEFLGRDLWIKQIGEAQEKGRLDYAKLRERIKAGKGVTSAIDLCRYHGNKALEALESFPPSEARSALENIVFAVTRFS [PDSS2]	0.42	-0.202	0.217	0.169	53.5	54.1
MAAAAAAAVAGVGRGGGGAEPRQERSRARGWAGVERSEGRRMEPGEELEEEGSPGGREDGFTAEHLAAEAMAADMDPWLVFDARTTPATELDAWLAKYPPSQVTRYGDPGSPNSEPVGWIAVYGQGYSPNSGDVQGLQAAWEALQTSGRPITPGTLRQLAITHHVLSGKWLMHLAPGFKLDHAWAGIARAVVEGQLQVAKVSPRAKEGGRQVICVYTDDFTDRLGVLEADSAIRAAGIKCLLTYKPDVYTYLGIYRANRWHLCPTLYESRFQLGGSARGSRVLDRANNVELT [C11ORF68]	0.634	-0.663	0.585	-0.0653	51.6	51.9
